In patent US20230048046A1 (CUGENE, published 2023):

B1: P-0176, IL-15i1 (GS insertion after N95) in IL-15/IL-15Rα heterodimeric Fc fusion format (Fc fusion)
chain 1: DKTHTCPPCPAPEAAGAPSVFLFPPKPKDTLMISRTPEVTCVVVDVSHEDPEVKFNWYVDGVEVHNAKTKPREEQYNSTYRVVSVLTVLHQDWLNGKEYKCKVSNKALPAPIEKTISKAKGQPREPQVYTLPPCREEMTKNQVSLSCAVKGFYPSDIAVEWESNGQPENNYKTTPPVLDSDGSFFLVSKLTVDKSRWQQGNVFSCSVMHEALHNHYTQKSLSLSPGEPKSSDKTHTSPPSPNWVNVISDLKKIEDLIQSMHIDATLYTESDVHPSCKVTAMKCFLLELQVISLESGDASIHDTVENLIILANNSLSSNGNVTESGCKECEELEEKNGSIKEFLQSFVHIVQMFINTS
chain 2: DKTHTCPPCPAPEAAGAPSVFLFPPKPKDTLMISRTPEVTCVVVDVSHEDPEVKFNWYVDGVEVHNAKTKPREEQYNSTYRVVSVLTVLHQDWLNGKEYKCKVSNKALPAPIEKTISKAKGQPREPQVCTLPPSREEMTKNQVSLWCLVKGFYPSDIAVEWESNGQPENNYKTTPPVLDSDGSFFLYSKLTVDKSRWQQGNVFSCSVMHEALHNHYTQKSLSLSPGEPKSSDKTHTSPPSPITCPPPMSVEHADIWVKSYSLYSRERYICNSGFKRKAGTSSLTECVLNKATNVAHWTTPSLKCIRDPALVHQRPAPP
B2: P-0177, IL-15i2 (GGSGG insertion after N95) in IL-15/IL-15Rα heterodimeric Fc fusion format (Fc fusion)
chain 1: DKTHTCPPCPAPEAAGAPSVFLFPPKPKDTLMISRTPEVTCVVVDVSHEDPEVKFNWYVDGVEVHNAKTKPREEQYNSTYRVVSVLTVLHQDWLNGKEYKCKVSNKALPAPIEKTISKAKGQPREPQVYTLPPCREEMTKNQVSLSCAVKGFYPSDIAVEWESNGQPENNYKTTPPVLDSDGSFFLVSKLTVDKSRWQQGNVFSCSVMHEALHNHYTQKSLSLSPGEPKSSDKTHTSPPSPNWVNVISDLKKIEDLIQSMHIDATLYTESDVHPSCKVTAMKCFLLELQVISLESGDASIHDTVENLIILANNSLSSNGNVTESGCKECEELEEKNGGSGGIKEFLQSFVHIVQMFINTS
chain 2: B1 chain 2
B3: huIL-15Rβ-6His (receptor, human, UniProt P14784 27-239, looked up)
chain: AVNGTSQFTCFYNSRANISCVWSQDGALQDTSCQVHAWPDRRRWNQTCELLPVSQASWACNLILGAPDSQKLTTVDIVTLRVLCREGVRWRVMAIQDFKPFENLRLMAPISLQVVHVETHRCNISWEISQASHYFERHLEFEARTLSPGHTWEEAPLLTLKQKQEWICLETLTPDTQYEFQVRVKPLQGEFTTWSPWSQPLAFRTKPAALGKD
notes: Coated on the ELISA plate; also called IL-15Rβ subunit; huIL-15R/3-6His (so in the source); not shown: 6His tag per the name

Legend:
huIL-15Rβ-6His [1] = molecular target: B3; assay: ELISA EC50 against P-0153 (IL-15 wild type)
Method: (§1) The binding activity was tested in ELISA assay. Briefly, Nunc Maxisorp (ThermoFisher) plates were coated overnight at 4° C. with huIL-15R/3-6His at 1 μg/well (100 μl/well) in bicarbonate buffer pH 9.4 (ThermoFisher). After washing 3 times with PBS/0.05% Tween20, plates were incubated with SuperBlock (300 μl/well) at room temperature for 2 hrs. to block nonspecific binding. After washing, IL-15 compounds each at 3-fold serial dilutions with blocking buffer were added to the plates (100 μl/well) and incubated at room temperature for 1 hr. After washing, the Fc fusions were detected by 1 hr. incubation at room temperature with a goat anti-human IgG Fc secondary antibody conjugated with horseradish peroxidase (HRP) at 1:5000 dilution in blocking buffer (ThermoFisher) (100 μl/well). After washing, TMB substrate (ThermoFisher) was added (100 ul/well). Plates were sealed and incubated 5-20 min at room temperature in dark. Reaction was stopped by adding 2N sulfuric acid (Ricca Chemical) (50 uL/well) and absorbance was read at 450-590 nm.
(§2) The IL-15 variants have amino acid deletion, insertion or point mutations introduced in the human IL-15 peptide. […]

huIL-15Rβ-6His [2] = molecular target: B3; assay: ELISA, huIL-15Rβ-6His coated, anti-human IgG Fc-HRP detection
Method: as §1, §2

[3] = molecular target: P-0313, C-terminal bivalent IL-15 S58D/IL-15Rα (non-covalent) Fc fusion protein (human, UniProt Q13261 31-107); assay: ELISA

| Binder | Fold change (huIL-15Rβ-6His [1]) [fold] | EC50 (huIL-15Rβ-6His [2]) [nM] | binding result [3] |
| --- | --- | --- | --- |
| B1 | 16 | 10.2 | – |
| B2 | 59 | 38 | – |
| B3 | – | – | binds |
